# Results reported in PMC9482650, “Quantitative fragmentomics allow affinity mapping of interactomes” (Nature Communications, 2022).
# T1: MPP1, Q00013
# T1 sequence (Q00013 66-162, limits assumed, looked up): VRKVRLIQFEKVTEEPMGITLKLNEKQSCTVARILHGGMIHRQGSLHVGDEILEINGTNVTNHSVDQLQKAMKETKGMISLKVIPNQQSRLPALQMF
# T2: NHERF1_2, O14745
# T2 sequence (O14745 149-244, limits assumed, looked up): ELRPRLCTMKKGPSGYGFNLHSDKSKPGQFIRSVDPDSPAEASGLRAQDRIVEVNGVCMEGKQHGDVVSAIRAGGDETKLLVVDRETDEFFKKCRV
# T3: LNX2_4, Q8N448
# T3 sequence (Q8N448 595-690, limits assumed, looked up): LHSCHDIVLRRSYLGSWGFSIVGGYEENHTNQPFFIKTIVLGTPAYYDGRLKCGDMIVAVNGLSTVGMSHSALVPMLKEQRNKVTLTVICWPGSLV
# T4: USH1C_2, Q9Y6N9
# T4 sequence (Q9Y6N9 206-303, limits assumed, looked up): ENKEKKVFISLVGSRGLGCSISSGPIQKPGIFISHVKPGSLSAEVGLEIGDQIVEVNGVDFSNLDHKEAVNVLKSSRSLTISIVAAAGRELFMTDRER
# T5: SHROOM2, Q13796
# T5 sequence (Q13796 21-118, limits assumed, looked up): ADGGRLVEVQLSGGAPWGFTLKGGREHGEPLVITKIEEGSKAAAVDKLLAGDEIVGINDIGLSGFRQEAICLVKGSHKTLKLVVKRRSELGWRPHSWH
# T6: MPP5, Q8N3R9
# T6 sequence (Q8N3R9 251-346, limits assumed, looked up): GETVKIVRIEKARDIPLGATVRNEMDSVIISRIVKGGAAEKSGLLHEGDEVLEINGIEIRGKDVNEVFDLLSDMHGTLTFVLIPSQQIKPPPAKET
# T7: MAGI2_1, Q86UL8
# T7 sequence (Q86UL8 12-111, limits assumed, looked up): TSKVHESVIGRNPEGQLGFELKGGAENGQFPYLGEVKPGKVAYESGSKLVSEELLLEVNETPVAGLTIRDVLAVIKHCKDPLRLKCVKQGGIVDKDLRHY
# T8: PDZD2_3, O15018
# T8 sequence (O15018 581-682, limits assumed, looked up): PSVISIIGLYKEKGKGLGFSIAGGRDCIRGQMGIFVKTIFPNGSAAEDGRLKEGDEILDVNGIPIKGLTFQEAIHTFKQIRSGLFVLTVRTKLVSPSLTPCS
# T9: PDLIM3, Q53GG5
# T9 sequence (Q53GG5 1-94, limits assumed, looked up): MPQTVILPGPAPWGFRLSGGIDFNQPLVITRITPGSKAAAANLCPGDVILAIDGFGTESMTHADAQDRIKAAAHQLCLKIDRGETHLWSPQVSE
# T10: SHANK3, Q9BYB0
# T10 sequence (Q9BYB0 641-750, limits assumed, looked up): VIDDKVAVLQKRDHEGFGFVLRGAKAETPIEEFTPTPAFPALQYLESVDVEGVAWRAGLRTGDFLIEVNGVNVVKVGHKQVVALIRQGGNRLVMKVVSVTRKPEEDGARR
# T11: PDZD2_4, O15018
# T11 sequence (O15018 723-823, limits assumed, looked up): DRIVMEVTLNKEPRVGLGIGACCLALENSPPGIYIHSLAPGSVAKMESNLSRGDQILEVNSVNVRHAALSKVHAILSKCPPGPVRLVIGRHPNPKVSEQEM
# T12: PDZD4, Q76G19
# T12 sequence (Q76G19 125-224, limits assumed, looked up): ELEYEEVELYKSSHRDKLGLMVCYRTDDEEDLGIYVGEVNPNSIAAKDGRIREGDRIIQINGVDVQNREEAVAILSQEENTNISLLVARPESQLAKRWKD
# T13: GIPC1, O14908
# T13 sequence (O14908 128-223, limits assumed, looked up): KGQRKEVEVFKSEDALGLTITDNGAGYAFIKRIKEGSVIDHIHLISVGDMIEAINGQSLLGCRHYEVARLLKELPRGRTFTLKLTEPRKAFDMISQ
# T14: MPDZ_11, O75970
# T14 sequence (O75970 1720-1817, limits assumed, looked up): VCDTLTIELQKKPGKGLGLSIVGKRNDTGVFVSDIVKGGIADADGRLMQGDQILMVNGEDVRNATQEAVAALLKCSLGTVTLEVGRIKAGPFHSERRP
# Tests used:
# Assay in all cases: holdup assay
# Parameters in all cases: key: below the threshold = too weak to quantify, mostly under pKd 3.1 to 4
# Conditions in all cases: plain residues with an end cap or a label only (N-terminal biotin on a linker: ttds)
# MPP1, Q00013 = target: T1, MPP1, Q00013
# NHERF1_2, O14745 = target: T2, NHERF1_2, O14745
# TJP1_1, Q07157 = target: TJP1_1, Q07157
# DVL2, O14641 = target: DVL2, O14641
# LNX2_4, Q8N448 = target: T3, LNX2_4, Q8N448
# RIMS1, Q86UR5 = target: RIMS1, Q86UR5
# USH1C_2, Q9Y6N9 = target: T4, USH1C_2, Q9Y6N9
# SCRIB_4, Q14160 = target: SCRIB_4, Q14160
# CNKSR3, Q6P9H4 = target: CNKSR3, Q6P9H4
# MAST3, O60307 = target: MAST3, O60307
# SHROOM2, Q13796 = target: T5, SHROOM2, Q13796
# MPP5, Q8N3R9 = target: T6, MPP5, Q8N3R9
# MAGI2_1, Q86UL8 = target: T7, MAGI2_1, Q86UL8
# PDZD2_3, O15018 = target: T8, PDZD2_3, O15018
# PDLIM3, Q53GG5 = target: T9, PDLIM3, Q53GG5
# GIPC3, Q8TF64 = target: GIPC3, Q8TF64
# SHANK3, Q9BYB0 = target: T10, SHANK3, Q9BYB0
# PDZD2_4, O15018 = target: T11, PDZD2_4, O15018
# PDZD4, Q76G19 = target: T12, PDZD4, Q76G19
# RIMS2, Q9UQ26 = target: RIMS2, Q9UQ26
# GIPC1, O14908 = target: T13, GIPC1, O14908
# MPDZ_11, O75970 = target: T14, MPDZ_11, O75970
# Sequence of SCRIB_4, Q14160 (Q14160 1095-1204): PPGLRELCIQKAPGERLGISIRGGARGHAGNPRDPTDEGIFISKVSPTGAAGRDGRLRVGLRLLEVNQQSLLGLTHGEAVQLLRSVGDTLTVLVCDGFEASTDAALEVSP
# Sequence of MAST3, O60307 (O60307 945-1048): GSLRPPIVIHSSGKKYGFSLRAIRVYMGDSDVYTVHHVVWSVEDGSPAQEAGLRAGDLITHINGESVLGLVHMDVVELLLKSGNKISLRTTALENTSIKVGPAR
# Sequence of TJP1_1, Q07157 (Q07157 18-120): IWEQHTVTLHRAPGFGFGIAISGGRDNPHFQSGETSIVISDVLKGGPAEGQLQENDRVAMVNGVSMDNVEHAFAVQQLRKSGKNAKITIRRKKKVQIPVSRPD
# Sequence of RIMS1, Q86UR5 (Q86UR5 584-692): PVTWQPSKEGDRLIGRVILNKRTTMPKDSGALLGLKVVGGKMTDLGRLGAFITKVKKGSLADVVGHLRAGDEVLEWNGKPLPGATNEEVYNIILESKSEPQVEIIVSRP
# Sequence of RIMS2, Q9UQ26 (Q9UQ26 637-758): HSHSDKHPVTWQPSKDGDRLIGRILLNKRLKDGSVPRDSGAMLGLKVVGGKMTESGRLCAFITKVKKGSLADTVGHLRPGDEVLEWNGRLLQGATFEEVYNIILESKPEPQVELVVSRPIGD
# Sequence of DVL2, O14641 (O14641 260-359): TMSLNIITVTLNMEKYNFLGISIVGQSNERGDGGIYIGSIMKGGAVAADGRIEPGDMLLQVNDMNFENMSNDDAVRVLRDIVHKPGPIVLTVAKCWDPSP
# Sequence of CNKSR3, Q6P9H4 (Q6P9H4 203-303): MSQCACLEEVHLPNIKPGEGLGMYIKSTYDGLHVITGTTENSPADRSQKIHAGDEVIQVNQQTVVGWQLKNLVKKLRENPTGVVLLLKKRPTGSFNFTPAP
# Sequence of GIPC3, Q8TF64 (Q8TF64 107-202): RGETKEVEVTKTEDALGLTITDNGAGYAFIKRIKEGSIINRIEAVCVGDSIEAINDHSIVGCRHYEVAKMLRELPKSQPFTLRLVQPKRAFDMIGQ
Binder,"pKd (MPP1, Q00013)","pKd (NHERF1_2, O14745)","pKd (TJP1_1, Q07157)","pKd (DVL2, O14641)","pKd (LNX2_4, Q8N448)","pKd (RIMS1, Q86UR5)","pKd (USH1C_2, Q9Y6N9)","pKd (SCRIB_4, Q14160)","pKd (CNKSR3, Q6P9H4)","pKd (MAST3, O60307)","pKd (SHROOM2, Q13796)","pKd (MPP5, Q8N3R9)","pKd (MAGI2_1, Q86UL8)","pKd (PDZD2_3, O15018)","pKd (PDLIM3, Q53GG5)","pKd (GIPC3, Q8TF64)","pKd (SHANK3, Q9BYB0)","pKd (PDZD2_4, O15018)","pKd (PDZD4, Q76G19)","pKd (RIMS2, Q9UQ26)",other results
"RLPKIKETTV [FRMPD4, Q14CM0]",5.3,below the threshold,below the threshold,below the threshold,below the threshold,below the threshold,below the threshold,4.85,4.24,below the threshold,below the threshold,below the threshold,below the threshold,below the threshold,4.24,below the threshold,below the threshold,below the threshold,below the threshold,below the threshold,"pKd (GIPC1, O14908): 4.44; pKd (MPDZ_11, O75970): below the threshold"
"RLQRRRETQV [HPV18-E6, P06463]",below the threshold,below the threshold,below the threshold,below the threshold,below the threshold,below the threshold,below the threshold,below the threshold,4.1,below the threshold,below the threshold,below the threshold,below the threshold,below the threshold,below the threshold,below the threshold,below the threshold,below the threshold,below the threshold,below the threshold,"pKd (GIPC1, O14908): 4.44; pKd (MPDZ_11, O75970): below the threshold"
"SGSRPSATVV [HPV73-E6, Q82005]",4.14,below the threshold,below the threshold,below the threshold,below the threshold,below the threshold,below the threshold,below the threshold,below the threshold,below the threshold,below the threshold,below the threshold,below the threshold,below the threshold,below the threshold,below the threshold,below the threshold,4.26,below the threshold,below the threshold,"pKd (GIPC1, O14908): 4.64; pKd (MPDZ_11, O75970): below the threshold"
"RHTTSTETAV [HPV30-E6, P36809]",5.17,below the threshold,below the threshold,below the threshold,below the threshold,below the threshold,below the threshold,4.59,below the threshold,below the threshold,below the threshold,below the threshold,below the threshold,below the threshold,below the threshold,below the threshold,below the threshold,4.78,below the threshold,below the threshold,"pKd (GIPC1, O14908): 4.7; pKd (MPDZ_11, O75970): below the threshold"
"RPLPRKVSQL [DOCK4, Q8N1I0]",4.29,4.45,below the threshold,below the threshold,below the threshold,below the threshold,below the threshold,below the threshold,below the threshold,below the threshold,below the threshold,below the threshold,below the threshold,below the threshold,below the threshold,4.39,below the threshold,below the threshold,below the threshold,below the threshold,"pKd (GIPC1, O14908): below the threshold; pKd (MPDZ_11, O75970): below the threshold"
